Patent publication US6866851

Tests used:
Test in all cases: cell-based or functional assay
[1] = target: GFRα2-RET receptor complex (cells transfected with GFRα2 and expressing RET)
[2] = target: GFRα1-RET receptor complex (cells transfected with GFRα1 and expressing RET)
[3] = target: GFRα3-RET receptor complex (cells transfected with GFRα3 and expressing RET)

In the case of “GPG-Ha (GDNF homologue-scanning mutant, region Ha replaced by persephin sequence) (ligand)”, the GFRα2-RET reporter activation (FIG. 4, percentage of reporter activation by GDNF) [1] is reported as 27% and the GFRα1-RET reporter activation (FIG. 4, percentage of reporter activation by GDNF) [2] is reported as 80%.

In the case of “PNP-Ha/F2ac (persephin with regions Ha, F2a and F2c from neurturin) (ligand)”, the GFRα2-RET reporter activation relative to GDNF [1] is reported as 70 to 80 % of GDNF.

With “PAP-Ha/F2ac (persephin with regions Ha, F2a and F2c from artemin) (ligand)” the GFRα3-RET reporter activation relative to artemin (% of full length artemin) [3] was 70 to 80.

“GPG-F2c (GDNF homologue-scanning mutant, region F2c replaced by persephin sequence) (ligand)” was tested, and the GFRα1-RET reporter activation relative to GDNF (% of full-length GDNF) [2] was < 60.

With “PNP-F2ac (His-Flag-PNP-F2ac, from mouse sequences) (ligand)” the GFRα2-RET reporter activation relative to GDNF [1] was < 30 % of GDNF.
